Assay [1] has as its target T1, human TfR extracellular domain (ECD) (human, UniProt P02786 89-760).
T1 construct: extracellular domain; Bought protein; also called HuTfR; huTfR
Nature of the assay: phage ELISA, scFv phage on coated TfR, anti-M13-HRP, single point.

Assay [2] has as its target T2, muTfR extracellular domain (ECD), His-tagged (mouse, UniProt Q62351 89-763).
T2 construct: extracellular domain; Bought protein (Sino Biological); also called muTfR-His; muTfR ECD
Nature of the assay: competition ELISA on coated muTfR-His against 1 nM biotinylated Ab4, streptavidin-HRP. As for the experimental part: High-binding ELISA plates (Corning) were coated with muTfR-His at 2 μg/mL overnight at 4° C. After blocking with 1% BSA PBS, individual antibodies (at designated concentrations) and 1 nM biotinylated TfR Ab4 in 1% BSA PBS were incubated with coated muTfR for 2 hours at room temperature. After washing with PBS+0.05% Tween-20, streptavidin-HRP (Jackson ImmunoResearch) was added at 1:5000 concentration and incubated for 1 hour at room temperature. After washing with PBS+0.05% Tween-20, TMB substrate (Thermo Fisher Scientific) was added and incubated for 5 min before being stopped by 1N H₂SO₄. OD values were read at 450 nm.

In assay [3] the target is T2, muTfR extracellular domain (ECD), …. Nature of the assay: BLI, biotinylated VEGFA on streptavidin sensors, no antibody, then muTfR ECD. As for the experimental part:
To characterize the bispecific antibodies a BLI-based sandwich capture assay. The bispecific antibodies were first captured onto sensors via VEGF165A. After equilibrium in blank buffer, the sensor-captured bispecific antibodies were then incubated with muTfR ECD. The VEGF-Trap/TfR bispecific antibodies were shown simultaneously binding to both VEGF165 and TfR. To further validate the antigen binding, we introduced another three control groups that missed one of the three binding partners (VEGFA, Ab, or TfR). […] Finally, the flat curves without TfR confirmed the observed binding signals in curves A and E were antibodies binding to TfR.
Streptavidin sensors (Fortebio) were used to capture biotinylated VEGFA proteins (Sino Biological). During all incubation steps, samples were kept at room temperature with 1000 rpm shaking. In the VEGFA loading step, 100 nM biotinylated VEGFA proteins were incubated with the sensors for the designated time. In the bispecific antibody interaction steps, 200 nM antibodies were used. In the muTfR incubation step, 100 nM muTfR-His (Sino Biological) were used. Between incubations, the sensors were dipped into blank kinetic buffers to allow the free dissociation of proteins.

T2 sequence (Q62351 89-763): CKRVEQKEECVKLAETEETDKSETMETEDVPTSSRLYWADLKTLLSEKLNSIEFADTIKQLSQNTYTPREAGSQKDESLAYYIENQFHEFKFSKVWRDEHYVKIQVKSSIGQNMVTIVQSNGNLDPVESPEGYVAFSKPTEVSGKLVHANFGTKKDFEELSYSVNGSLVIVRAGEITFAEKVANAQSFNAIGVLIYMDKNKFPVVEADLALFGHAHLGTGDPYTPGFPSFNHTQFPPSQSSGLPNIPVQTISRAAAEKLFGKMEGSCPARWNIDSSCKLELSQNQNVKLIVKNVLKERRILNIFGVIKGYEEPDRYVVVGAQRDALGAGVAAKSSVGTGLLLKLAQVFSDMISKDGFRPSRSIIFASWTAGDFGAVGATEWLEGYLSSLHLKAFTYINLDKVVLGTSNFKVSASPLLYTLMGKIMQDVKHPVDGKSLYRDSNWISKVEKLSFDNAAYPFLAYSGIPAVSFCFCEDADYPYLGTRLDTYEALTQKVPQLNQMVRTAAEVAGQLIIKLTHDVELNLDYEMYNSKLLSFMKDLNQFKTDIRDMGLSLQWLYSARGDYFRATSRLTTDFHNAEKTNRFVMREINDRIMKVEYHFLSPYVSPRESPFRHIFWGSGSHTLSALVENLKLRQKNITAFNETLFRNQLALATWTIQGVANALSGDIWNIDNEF

B1: 3H8 (antibody, V domains shown)
VH: QVQLVQSGAEVKKPGESLRISCKGSGYSFTSYWISWVRQMPGKGLEWMGRIDPSDSYTNYSPSFQGHVTISADKSISTAYLQWSSLKASDTAMYYCARHPPRSTRGDYGMDVWGQGTMVTVSS
VL: QAVVTQPPSVSGTPGQRVTISCSGSNSNIGSYIVNWYQQLPGTAPKLLIWGNDRRPSGVPDRVSASKSGTSASLAISGLQSEDEGDYYCAAWDNILNNYVFGPGTQLTVL
notes: Human IgG1, converted from a phage scFv clone
Consider B1, for which the binding result in assay [1] was “binds”.

B2: VEGF-Trap (Fc fusion, UniProt P17948 129-230, looked up)
chain: SDTGRPFVEMYSEIPEIIHMTEGRELVIPCRVTSPNITVTLKKFPLDTLIPDGKRIIWDSRKGFIISNATYKEIGLLTCEATVNGHLYKTNYLTHRQTNTIIDVVLSPSHGIELSVGEKLVLNCTARTELNVGIDFNWEYPSSKHQHKKLVNRDLKTQSGSEMKKFLSTLTIDGVTRSDQGLYTCAASSGLMTKKNSTFVRVHEK
notes: domain: D2 domain;domain: D3 domain; Designed on aflibercept; also called VEGF-Trap positive control; not shown: human Fc fragment
Turning to B2, the binding result in assay [2] is “no binding”.

B3: 1C8 (antibody, V domains shown)
VH: QVQLVQSGAEVKKPGSSMKVSCKASGGTFSSYAISWVRQAPGQGLEWMGGIIPIFGTAKYAQKFQGRVTITADESTTTAYMELSSLSSEDTAVYYCARSLGWYYAFDIWGQGTMVTVSS
VL: DIVMTQSPSTLSASVGDRVTITCRASQNINNWLAWYQQKPGKAPKLLIYKASTAESGVPSRFSGSGFGTEFTLTISSLQPDDFASYYCQQYKNYPYSNLYTFGQGTKVDIK
notes: as for B1
For the molecule B3, the binding result in assay [1] is reported as “binds”.

B4: VEGFA (VEGF165) (ligand, human, UniProt P15692-4 27-191, looked up)
chain: APMAEGGGQNHHEVVKFMDVYQRSYCHPIETLVDIFQEYPDEIEYIFKPSCVPLMRCGGCCNDEGLECVPTEESNITMQIMRIKPHQGQHIGEMSFLQHNKCECRPKKDRARQENPCGPCSERRKHLFVQDPQTCKCSCKNTDSRCKARQLELNERTCRCDKPRR
notes: also called VEGF165A; human VEGFA
For the molecule B4, the binding result in assay [3] was “no binding (tested: 100 nM muTfR-His)”.

The values are drawn from US20240376222A1 (University of Texas, published 2024).
